Measured values: the domain aggregation screens of Martell et al. (2025)

Assay: soluble fraction after stress (log2 fold change); higher = more stays soluble; pooled small domains, quantitative proteomics
Conditions: stress: pH 4
Procedure, shortened: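 How much of each domain stays soluble after acid stress, expressed as a fold change, is used to gauge aggregation propensity. Pooled custom libraries of small domains underwent pH 4 stress before high-throughput quantitative proteomics. A higher log2 value means more of the domain stayed soluble.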

Sequence	soluble fraction (log2)
HMAEMRYLDQIYEVNVPLPDLSLEDGDLLARWAVNFHQRYEELFSYRQSDQEIRLVTLRVTVLGELP	-1.67
HMAENMNAALRVSSLINQIGTVNAKAKDRIESARKAYDALSEAQKAYVANLTTLETAETSLSKL	0.146
HMAENTIPSVIGKTLSDATFLLESYGYERGGVSEEYSEMPKGVVIRQSPQAGSSADPGTKVNLVVSLGEEI	-0.692
HMAENTKKWDETGRRYRSYIKLEKRLSENTVESYMRDYMQFAHFILRQWDVAPHKVEPQMVERYMAWLYER	-0.806
HMAEPIAAGKYTVSTSGSVLNMRVSPDADSQVLEKIPNGTIVEVTKSVLGWAYVTYNSAQGWVSSAYLV	-0.463
HMAEPLMTQIVEIEYADAEGLRENLEQFLTRLDEKTLLGSVLVDRHTNSLIIQAVRSDLERMLPLIETLDR	-1.49
HMAEPLYKQVKNKIIQNLTSDEWKPGSVIPSETKLAETYGVGVSTIRMAIGELVAARILIRRQGKGTFVSS	0.238
HMAEQDILQSVYPHIGGQDNVSRTISRNGTLYLMLKDASAVDLKAVKQVPGIADAALERGRLTLQLEE	-0.0819
HMAEQLGNSRTANMVMLGAMIERTGVISIDSAMEALKATFGPKKEHLLPINRQAMEAGAAAARAV	-0.517
HMAERVWASLLEIKNAVAIEDAKTLEDVDNSEKIAEERIAALNDDAKHPLAIAFIGKLRQDIAEKKIELA	-1.19
HMAESSPYTVRPGDTLWKILAQTQNARYNDFPYLYRKFRELNPNITDLNHIVSGQKIIVPHIPG	0.196
HMAESTRSRILNAAIEMMETGGESSVRLSAIAEALGIKEPSIYHHFTNRTELVNAAYIEWYW	-0.63
HMAEVDREEALRIALAHAAVARRDVRNLKIERGEENGVPVYKVEFETAFGDFDVAVSRRSGDVVDAD	-0.0548
HMAEVIYGAGKTPAQMLGILRTMQAHGQKTVLITRLREEAAEEIGREIPLQYDKTAGVGIVGTLPQPDG	-0.0513
HMAEVPSLIGKSLDAAKQAIIDAGFKVGSVSYDNSDSYGKGQVMWQQYEPSTKVKKGSSISIKVSKGS	-0.121
HMAEVRTLLVPIELAGMRFDQVLAELLPEFSRSRLAAWIKSGDALLDGHDAKPKGVVRGGEQIEIRLA	-0.167
HMAFAVWVKLVAIGPNYAQLEIEQGTQRNVRTLRPGDDAPEGVRLLSLTPTHAEVQANGIARKLALGQGMA	-0.0174
HMAFDESLVRSIQELLSELGYSPGKIDGLLGAKTVAAIKAFELEINKDQLTGEPSEELLIALQLAIRSSKM	-0.968

Sequence	soluble fraction (log2)
HMAFDGIVLKNITNALKELINGKINKIQQSSKDNLTLSIYNQKSYNLYIDISANNYRVNLTTHSE	0.22
HMAFDYETYQLTSREFSIIELVADGRSNREIAEALYLGEGTVRNYLSSILEKLELRDRTQLAVFFYQHL	-2.34
HMAFIEIMTEGDADGRGFQYPIPTYSITRDFDWSETENNKLLFEMTAKYGTPYFSNYINSDMEPSDV	-0.913
HMAGAITEREVEVLELLSRGLGNKEIAKELFVSEATVKSHLSHIYTKLAVDTRAGAVAAAIERRIIRAWR	-0.388
HMAGASQAVKAQLRLREMILAGELPGGARIAELTLVEKLGVSRTPIRAALMRLEQEGLLHRLPGGGYAVRT	-0.41
HMAGDDEIEKIAQDILAAWPDKVAAYQAGNKGLMGLFMGELMKKSQGKANPKVASGIIQKLLD	-0.455
HMAGEDPANLELMRLMDEEYMEHPTKGVLGMVDFLRALGILTGPKRVRRLLRKMGIMAIYPK	-0.396
HMAGGVFELTGKVTADAKAGDLVYVKAATGAGTKPVVTTVKTGADVIIGWLKEPVSSASVDQKMQVVLA	0.22
HMAGITLHAEEGRVRIRSQSEGLVKVLDAMGREQASWPLRSKGWWFFLTEGWAPGTYFVKTESGETQRFLV	0.215
HMAGNNTATKEIAELLIAKGADVNAMNLSPPGREIGGMTPLDMAILGNRNEIADLLRKHGGRTQKELKAE	-0.104
HMAGPGAEVVDRLIAVLTGERPATAADQVLLSILKGLGIGGVVLPSERTGLGWSGLYQRVKEITDMN	-1.21
HMAGPRRRLLDAAIDRAAERGLGDLSLRALAEELGTSHRMLSHHFGSKDGLWLAIVEEVERRQ	-0.661
HMAGSTAASKHALALLNTARHSIRDGNLTSAAAEIKQALATSQEQIVITEARSLMTAMEARATTRRATVLQ	-0.179
HMAGTAMRATTAVNVRSGAGTNYSRIGLLQAGEQIQALSSKNGWTQVSYKGRTGYVASAYLASL	0.402
HMAGTGKVNTGVANVRSGPGTNYEISGKIYADTEVSILETSNGWYKIKFGNLTGWMSGTVLDIK	-0.0124
HMAGTPAVVKWFNPTKGFGFVTPREAGSDALLHASVLAKQGKRWLQEGTVVEVVLEEGPKGLVVSEVLTIE	-0.469
HMAGWMPGGTNPAEPGRFAVLMDVDDSDAYKHMFLRWNGHAWEFERTRVLVKMEPSWWMRLPDDPEKP	-0.27
